Results published in the nanobody polyreactivity screen of Harvey et al. (2022).

Assay: yeast display, Sf9 membrane polyspecificity reagent, FACS + sequencing; frameworks hold sequencing errors
Summary of the method: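 Galactose induction of a Saccharomyces cerevisiae BJ5465 synthetic nanobody display library ran 36–48 hours. The cells were then stained for 1 hour at 4 °C with 10% biotinylated, detergent-solubilized Sf9 membrane reagent, pulled down on streptavidin microbeads and FACS-sorted into low and high (top ~1%) gates on expression and reagent-binding fluorescence. Labels for polyreactivity follow the gate of origin.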

Sequence | polyreactivity (PSR sort gate)
QVQLVESGGGLVQAGGSRRLSCAASGFIFTTYTRGWYRQATGTERELVAAIRSDGVRTYYADSVKGRFTISRDNAKNTVYLQMNSLKPEDTAVYYCNRVCAVRIGAGDYWGQGTQVTVSS | high polyreactivity
QVQLVESGGGLVQAGGSLRLSCAASGRISNDYAMGWYRQAPGKDRELVATITFSGGDTYYADSVKGRFTISRDHAKNTVYLQMNSLKPEDTAVYYCAASKWPSYSGGWWRLLFDYWGQGTQVTVSS | low polyreactivity
QVQLVESGGGLVQAGGSLRLTCAASGIIFRGYVMAWYRQAPGKERELVAAISTSGGRTSYADSVKGRFTISRDNAKNTVYLQMNSLKPEDTAVYYCKTRVTGNRLGYYYWGQGTQVTVSS | high polyreactivity
QVHLVESGGWLVQAGGSLRLSCAASGRTFHVYAMGWYRQAPGKERELVAAITWSGDSTYYADSVKGRFTISRDNAKNTVYLQMNSLKPEDTAVYYCAASQFWKYDYWGQGTQVTVSS | low polyreactivity
QVQLVESGGGLVQAGGSLRLSCAASGFTFNAYAMGWYRQAPGKERELVAAINVSGGITYYADSVKGRFTISRDNAKNTVYLQMNSLKPEDTAVYYCARDSYYSQVYRRGYSVPWRLDYWGQGTQVTVSS | low polyreactivity
QVQLVESGGGLVQAGGSLRLSCAASGRTFAANTMGWYRQAPGKERELVAAINAGGSTYYADSVKGRFTISRDTAKNTVYLQMNSLKPEDTAVYYCAAKGSGYYGRQRIYSYTYDYWGQGTQVTVSS | high polyreactivity
QVQLVESGGGLVQAGGSLRLSCAASGITFDSNAMGWYRQAPGNERELVAAISSTGSTDYADSVKGRFTITRDNAKNTVYLQMNSLKPEDTAVYYCATGGRGGRRYEYWGQGTQVTVSS | low polyreactivity
QVQLVESGGGLVQAGGSLRLSCAASGGIFSYNAMGWYIQAPGKERELVATISYSGGSTFYADSVKGRFTISRHNAKNTVYFQMNSLKPEDTAVYYCARPSYTSGYQSYDYWGQGTQVTVSS | low polyreactivity
QVQLVESGGGLLQAGGSRRIRCAASGRIFWVYAMGWYRKAPGKERELVAAISSTGDGTYYADSVKVRFTISRDNAKNSVYLEMNSLKPDDTAVYYCAADFRVARSPLSGGSDFWGQGTQVTVSS | low polyreactivity
QVQLVESGGGLVQAGGSLRLSCAASGYNFNYAMGWYRQAPGKERELVAAISRRGGSTYYADSVKGRFTISRDNAKNTVYLQMNSLTPEDTAVYYCAARLPGYFGIGDYWGQGTQVTVSS | high polyreactivity
QVQLVESGGGLVQAGGTLRLSCAASGSIFGKNAMGWYRQARGKERELVAAITWSGGSTYYADSVKGRFTISRDNAKNTVSLQINSLKPEDTAVYYCNAVRVRVTSHRIRQLDYGYWGQGTQVTVSS | low polyreactivity
QVQLVESGGGLVQAGGSLRLSCAASGIIFQGNAMGWYRQAPGKERELVAVITSRGGSTYYADSVKGRFTISRDNAKNTVYLQMNSLLPEDTAVYYCAKAKRYPQYYYWGQGTQVTVSS | high polyreactivity
QVQLVESGGGLVQAGGSLRVSCAASGLIFNTYAMGWYRQAPGKERELVAAITVGGGTNYADSVKGLFRISRDNAKNTVYLQMNSLNPADTAVYYCAARLASWPLTYDFQWYEYWGQGTQVTVSS | low polyreactivity
QVQLVESGGGLVQAGGSLRLSCAASGRTFGTYVMGWYRQAPGKERELVAAITGSGGSTYYADSVKGRFTISRDNAKNTVYLQMNSLKPEDPAVYYCAARAYQHYNWGQGTQVTVSS | high polyreactivity
QVQLVESGGGLVQAGGSLRLSCSASGSTFYYNAMGWYRQAPGKERELVARISRSGGSTYADSVKGRFTISRDNAKNTVYLQMNSLKPEDTAVYYCNAIGYTGPVAYPEYDYWGQGTQVTVSS | low polyreactivity
QVQLVESGGGLVQAGGSLRLSCAASGLTFYPYAMGWYRQAPGKESELVAAINWSGTTTYYADSVKGRFTISRDNAKNTVYLQMNSLKPADTAVYYCNADVYYEPTTGYYLWDYDYWGQGTQVTVSS | low polyreactivity
QVQLVESGGGLVQAGGSLRLSCAASVLIFYDNIGWYRQAPGKERELVAAIDSGGNTYADSVKGRFTISRDNAKNTVYLQMNSLKPEDTAVYYCAVDGGEFSSYGYWGQGTQVTVSS | low polyreactivity
QVQLVESGGGLVQAGGSLRLSCAASGSTFIYNAMGWYRQAPGKERELVAAITWNGGSTYYADSVKGRFTISRDNAKNTVYLQMNSLKPEDTAVYYCAVDKGSQPHYDYWGQGTQVTVSS | low polyreactivity
QVQLVESGGGLVQAGGSLRLSCAASGRIFRYYAMGWYRQAPGKERELVAAITRGGSTNYADSVKGRFTISRDNAKNTVYLQMNSLKPEDTAVYYCAVRGGYTWPTYNYWGQGTQVTVSS | high polyreactivity
QVQLVESGGGIVQAGGSLRLSCAASGRIFYINAMGWYRQAPGKERELVAAISTSGGCTYYADSVKGRFTISRDNAKKTVYLQMNSLKPEVTAVYYCAAALRYGYYGREYYYWGQGTKVTVSS | high polyreactivity
QVQLVESGGGLVQAGGRLRLSCAASGSFFGGSGMGWYRQAPGKERELVAAITSGSSTYYADSVNGRFTISRDNAKNTVYLQMNSLKPEDSAVYYCAARPYPHSAYEGDYWGRGTQVTVSS | low polyreactivity
QVQLVESGGGLVQAGGSLRLSCAASGSTFYYNGMGWYRQAPGKEREFVAAITSSGTSTHYADSVKGRFTISRDNAKNTVYLQMNSLKPEDTAVYYCNRYGAHVSTAYYYWGQGTQVTVSS | high polyreactivity

Sequence | polyreactivity (PSR sort gate)
QVQLVESGGGLVQAGGSLRLSCAASGFTFAVYAMGWYRQAPGKERELGAAISRSGTRTYYADSVKGRFTFSRDNAKNTVYLQMNSLKPEDTAVYYCATVVILIYDYWGQGTQVSVSS | low polyreactivity
QVQLVESGGGLVQAGGSLRLSCAASGFIFRYYAMGWYRQAPGKERELVARITPRGGRTYYADSVKGRFTISRDNAKNTVYLQMNSLKPEDTAVYYCAAVYPVLDEFGYWGQGTQVTVSS | high polyreactivity
QVQLVESGGGLVQAGGSLRLSCAASVFISSWYDMGWYRQAPGKERQLVAAIRSSGGNTYYADSVKGRFTISRDNAKNTVYLQMNSLKPEDTAVYYCAKDWKSEDGGYYWGQGTQVTVSS | high polyreactivity
QVQLVESGGVLVQAGGTLRFSCAPSGLTFVYYTMRWYRQAPGQEREFVAGIDWSGGSTYYADSVKGRFTISRDNAKNTVYLHMNSLKPEDTAVYYCAAAVYYQYCVYRHDYWGKGTQVTVSS | low polyreactivity
QVQIVDSCGGLVQSGGSLRLSCDASGSTFLTNSMGWYRQAPGKERELVAAITLRGGRTYYADSVKGRFTISRDNALNTVYLQMNSLKPEDSAVYYCNARNYYYPSDRDYWGQGTQVTVSS | low polyreactivity
QVQLVESGGGLVQAGGSLRLSCAASGSILDSNAMGWYRQAPGQERELVAAISRSGVSTHYADSVKGRFSISRDNAKNTVYLQMNSLKPEDTAVYYCARTGQSLYSRYYYWGQGTQVTVSS | low polyreactivity
QVQLVESGGGLVQAGGSLRLSCAASGRIFRYYAMGWYRQAPGKERELVAAISDSSGSTYYADSVKGRFTISRDNAKNTVYLQMNSLKPEDTAVYYCRYYFGSGFYYWGQGTQVTVSS | high polyreactivity
QVQLVESGGGLVQAGGSLRLSCAASGSTIYNYAMGWYRQATGKERELVAVISRSGGRTYYADSVKGRFTISRDNAKNTVYLQMNSLKPEDTAVYYCAADTYRGYDFDYWGQGTQVTVSS | high polyreactivity
QVQLVESGGGLVLAGGSLRLSCAASGRIYVFYAMGWYRQAPGKEREFVATISYSGDTTYYADSVKGRFTISRDNAKNTVYLQMNSLTPEDTAVYYCAADQVPSYYYVPLGYDSWGQGTQVTVSS | low polyreactivity
QDQLVESRGGLVQAGGSLRLSCAASGFTFPSYAMGWYRQAPRKERELVAAITRSGGRTYYADSVKGRFTISRDNAKNTVYLQMNILKPEDTAVYYGAADRAAPRYDYWGQGTQVTVSS | high polyreactivity
QVQLVESGGGLVQAGGSLRLSCAASGIIFDTNAMGWYRPAPGKERELVAAITRSGGGTYYADSVKGRFSISRDNAKNTVYLQMNSLKPDDTAVYYCAARRQRDRYGYWGQGTQLTVSS | high polyreactivity
QVQLVESGGGLFQAGGSLRLSCAASGSTFYIYAMGWYRHAPGKERELVARITRGGTTYADSVKGRFTISRDNAKNTVYLQMNSLKPEDTAVYYCNAYISDDRYWSPAIEEDYWGQGTQVTVSS | high polyreactivity
QVQLVESGVGLVQAGGSLRLSCAASGIIFRYYAMGWYRQAPGKERELVAAISSSGVSTYYADSVKGRFTISRDNAKNTVYLQMNSLKPEDTAVYYCNAVIWVRQYFSRSSSNYWGQGTQVTVSS | high polyreactivity
QVQLVESGGGLVQAGGSLRLSCAASGSTFGYNAMGWYRQAPGKERELVAAISYIGGSTYYADSVKGRFTISRDNAKNTVYLQMNSLKPEDTAVYYCNAAVRYYDRTVSPVKFDYWGQGTQVTVSS | high polyreactivity
QVQLVESGGGLVQAGGSLRLSCAASGNIFVFYVMGWYRPAPGKERELVASISSTGNTYYADSVKGRFTISRDNAKNTVYLQMNSLKPEDTAVYYCNADPIFVYSSYNYWGQGTQVTVSS | low polyreactivity
QVQLVESGGGLVQAGGSLRLSCAASGLTFYRYAMGWYRQAPGKERELVAAITSSGRTNYADSVKGRFTISRDNAKNTVYLQMNSLKPEDTAVYYCNAVRRTFNGPGSSQGYDYWGQGTQVTVSS | high polyreactivity
QVHLVESGGGLVQAGGSLRLSCAASGRTFGWNVMGWYRPAPGKERELVAAISGSGGSTYYADSVKGRFTISRDNAKNPVYLQMNSLKPEDTAVYYCAALYGPGREYDYWGQVTQVTVSS | low polyreactivity
QVQLVESGGGLVQAGGSLRLSCAASGRIFYANAMGWYRQAPGKERELVAGISSGGITNYADSVKGRFTISRDNAKITVYLQMNSLKPEDTAVYYCAVESWNRWRNRNDYWGQGTQVTVSS | low polyreactivity
QVQLVESGGGLVQAGGSLRLSCAASVITFNYNARGWYRQAPGKERELVARITWSGTRTYYADSVKGRFTMSRDNANNTVYLQMNSLKPEDTGVYYCNAGPYARYYWGQGTQVTVSS | high polyreactivity
QVQLVESGGGLVQAGGSLRLSCAASGSIFYLYTMGRYRQAPGKERELVAAITNGGSTDYADSVKGRFTISRDNAKNTVYLQMNSLKPEDTAVYYCNADPRYPVDELEYWVTTPYDYWGQGTQVTVSS | low polyreactivity
QVQLVESGGGLVQAGGILRLSCAASGSIFEYNAMGRYRKPPGKERELCASISWSGGSTYYADSVKGRYTISRDNAKNTVYLQMYSLKPEATAVYYCNVRKWSRWFRESYYWGQGTQVTVSS | high polyreactivity
